Patent US20240417476A1

B1: aNRP2-401v2 (antibody, V domains shown)
VH: EVQLQESGGGLVKPGGSLKLSCAASGFTFSDYGMHWVRQAPEKGLEWVATISRDINTVYYADTVKGRFTISRDNAKNTLFLQVTSLRSEDTAMYYCTRGGYTDYWGQGTTLTVSS
VL: DIVMTQTPLSLPVSLGDQASISCRSSQSLVHSNGNTYLYWYLQRPGQSPKLLIYKVSNRFSGVPDRFSGSGSGTDFTLKISRVEAEDLGVYFCSQSTHVLTFGGGTKLEIK
B2: aNRP2-407v2 (antibody, V domains shown)
VH: EVQLQQSGPELVKPGASVTISCKASGYSFTGYYMHWVKQSHVKSLEWIGRINPYNGATSYSQNFKDKASLTIDKSSSTAYMELHSLTSEDSAVYYCAREETTAPFTYWGQGTLVTVSA
VL: DIVMSQSPSSLAVSVGEKVTMSCKSSQSLLYSSNQKNYLAWYQQKPGQSPKLLIYWASTRESGVPDRFTGSGSGTDFTLTISSVQAEDLAVYFCQHYYSYPPTFGGGTKLEIK
B3: aNRP2-405v2 (antibody, V domains shown)
VH: EVMLVESGGGLVKPGGSLKLSCAASGFTFRRYAMSWVRQTPEKGLEWVATITSGGSYTYYLDSVKGRITISRDNAKNTLYLQMSSLRSEDTAMYYCARHGIYGGFDYWGQGTTLTVSS
VL: DVLMTQTPLSLPVSLGDQASISCRSSQSIVHSDGNTYLEWYLQKPGQSPNLLIYKVSNRFSGVPDRFSGSGSGTDFTLKISRVEAEDLGIYYCFQGSHVPFTFGSGTKLEIK
B4: aNRP2-408v2 (antibody, V domains shown)
VH: EVKLVESGGGLVKPGGSLKLSCAASGFTFSSYAMSWVRQTPEKRLEWVASISRGSITYYPDSVKGRFTISRDNAGNILYLQMSSLRSEDTAMYYCAREYYYAMDYWGQGTSVTVSS
VL: DIQMTQSPSSLSASLGERVSLTCRASQDIGSRLNWLQQEPDGTIKRLIYATSSLDSGVPKRFSGSRSGSDYSLTISSLESEDFVDYYCLQYASSPYTFGGGTKLEIK
B5: aNRP2-409v3 (antibody, V domains shown)
VH: EVQFVETGGGLVQPKGSLKLSCAASGFTFNTNAMNWVRQAPGKGLEWVARIRTKSNNYATYYADSVKDRFTISRDDSQNILYLQMNNLKTEDTAMYYCVTLDSSGYVWFAYWGQGTLVTVSA
VL: DIQMTQSPSSLSASLGERVSLTCRASQDIGSRLNWLQQEPDGTIKRLIYATSSLDSGVPKRFSGSRSGSDYSLTISSLESEDFVDYYCLQYASSPYTFGGGTKLEIK
B6: aNRP2-400v2 (antibody, V domains shown)
VH: EVQLQESGAELARPGASVKLSCKASGYTFRSYGISWVKQRTGQGLEWIGEIYPRSGNTYYDENFKGRATLTADKSSSTAFMELRSLTSEDSAVYFCARSSITAVVAIPYYYAMDYWGQGTSVTVSS
VL: DIQMTQTTSSLSASLGDRVTISCSASQGISNYLNWYQQKPDGSVKLLIYYTSSLHSGVPSRFSGSGSGTDYSLTISNLEPEDIATYYCQQYSKLPHTFGGGTKLELK
B7: aNRP2-37v2 (antibody, V domains shown)
VH: DVKLVESGEGLVKPGGSLKLSCAASGFTFSDYALSWVRQTPEKRLEWVAYISSGGDYIYYADTVRGRFTISRDNARNTLYLQMSSLQSEDTAIYYCTRGGQDDYWGQGTTLTVSS
VL: DVVMTQTPLSLPVILGDQASISCRSSQSLVHSNGNTYLQWYLQKPGQSPKLLIYKVSNRFSGVPDRFSGSGSGTDFTLKISRVEAEDLGVYFCSQSTHVPFTFGSGTNLEIK
B8: aNRP2-403v2 (antibody, V domains shown)
VH: QVQLQQPGAELVKPGASVKLSCKASGYTFTSYWMHWVKQRPGRGLEWIGRIDPNSGDTKYNEKFKSKATLTVDKPSSTAYMQVSSLTSEDSAVYYCARSYDYALEYWGQGTSVTVSS
VL: DVVMTQTPLSLPVSLGDQASISCRSSQSLVHSNGNTYLHWFLQKPGQSPNLLIYKVSNRFSGVPDRFSGSGSGTDFTLKISRVEAEDLGVYFCSQNTRVPRTFGGGTKLEIK
B9: aNRP2-401v5 (antibody, V domains shown)
VH: EVQLVESGGGLVQPGGSLRLSCAASGFTFSDYGMHWVRQAPGKGLEWVSTISRDINTVYYADTVKGRFTISRDNAKNSLYLQMNSLRAEDTAVYYCARGGYTDYWGQGTTVTVSS
VL: DIVMTQTPLSLSVTPGQPASISCRSSQSLVHSNGNTYLYWYLQKPGQSPQLLIYKVSNRFSGVPDRFSGSGSGTDFTLKISRVEAEDVGVYYCSQSTHVLTFGGGTKVEIK
B10: aNRP2-401v7 (antibody, V domains shown)
VH: EVQLVESGGGLVQPGGSLRLSCAASGFTFSDYGMHWVRQAPGKGLEWVSTISRSINTVYYADTVKGRFTISRDNAKNSLYLQMNSLRAEDTAVYYCARGGYTDYWGQGTTVTVSS
VL: DIVMTQTPLSLSVTPGQPASISCRSSQSLVHSNGNTYLYWYLQKPGQSPQLLIYKVSNRFSGVPDRFSGSGSGTDFTLKISRVEAEDVGVYYCAQSTHPLTFGGGTKVEIK
B11: aNRP2-401v6 (antibody, V domains shown)
VH: EVQLVESGGGLVQPGGSLRLSCAASGFTFSDYGMHWVRQAPGKGLEWVSTISRDINTVYYADTVKGRFTISRDNAKNSLYLQMNSLRAEDTAVYYCARGGYTDYWGQGTTVTVSS
VL: DIVMTQTPLSLSVTPGQPASISCRSSQSLVHSNGNTYLYWYLQKPGQSPQLLIYKVSNRFSGVPDRFSGSGSGTDFTLKISRVEAEDVGVYYCAQSTHPLTFGGGTKVEIK
B12: aNRP2-401v8 (antibody, V domains shown)
VH: EVQLVESGGGLVQPGGSLRLSCAASGFTFSDYGMHWVRQAPGKGLEWVSTISRDIQTVYYADTVKGRFTISRDNAKNSLYLQMNSLRAEDTAVYYCARGGYTDYWGQGTTVTVSS
VL: DIVMTQTPLSLSVTPGQPASISCRSSQSLVHSNGNTYLYWYLQKPGQSPQLLIYKVSNRFSGVPDRFSGSGSGTDFTLKISRVEAEDVGVYYCAQSTHPLTFGGGTKVEIK

target: recombinant NRP2 isoform a (human) (UniProt O60462); assay: BLI, antibody captured by anti-mouse kappa, NRP2a titrated 0.62-450 nM, 1:1 fit

Q: How did the Kd turn out when B1 was run?
A: Its Kd is 136 pM.

Q: With B2 as the binder, how does the Kd read?
A: The Kd was 352 pM.

Q: How did the Kd turn out when B3 was run?
A: Its Kd is 480 pM.

Q: With B4 as the binder, how does the Kd read?
A: The Kd was 2100 pM.

Q: With B5 as the binder, how does the Kd read?
A: The Kd was 2230 pM.

Q: How did the Kd turn out when B6 was run?
A: The Kd was 453 pM.

Q: B7 was tested. Which Kd did it give?
A: Its Kd is 767 pM.

Q: With B8 as the binder, how does the Kd read?
A: Its Kd is 1400 pM.

target: recombinant NRP2 isoform a (human) (UniProt O60462); assay: BLI (Octet RED96e)

Q: With B9 as the binder, how does the Kd read?
A: The Kd was 391 pM.

Q: And the koff?
A: The koff was 0.000293 s⁻¹.

Q: What about the kon of the same binder?
A: The kon was 748000 M⁻¹ s⁻¹.

Q: Which results are given for B10?
A: Kd: 141 pM; koff: 0.000173 s⁻¹; kon: 1.23e+06 M⁻¹ s⁻¹

Q: What does the source list for B11?
A: Kd: 162 pM; koff: 0.000162 s⁻¹; kon: 999000 M⁻¹ s⁻¹

Q: For B12, which Kd is on record?
A: Its Kd is 98.9 pM.

Q: What about the koff of the same binder?
A: The koff was 0.00012 s⁻¹.

Q: What about the kon of the same binder?
A: Its kon is 1.21e+06 M⁻¹ s⁻¹.
